Data from patent US20240010722A1 (published 2024).

T1: human MAdCAM (human, UniProt Q13477 19-317, limits assumed)
T1 construct: also called huMAdCAM; human MAdCAM-1
T1 sequence (looked up): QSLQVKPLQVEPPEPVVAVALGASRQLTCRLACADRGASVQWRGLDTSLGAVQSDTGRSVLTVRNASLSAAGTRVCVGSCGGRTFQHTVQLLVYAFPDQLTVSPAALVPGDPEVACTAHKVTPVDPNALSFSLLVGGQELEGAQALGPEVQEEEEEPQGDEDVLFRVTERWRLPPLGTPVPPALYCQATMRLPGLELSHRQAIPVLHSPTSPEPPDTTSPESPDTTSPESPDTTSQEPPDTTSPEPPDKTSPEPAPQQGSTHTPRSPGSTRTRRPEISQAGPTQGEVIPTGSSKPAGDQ

T2: mouse MAdCAM (mouse, UniProt Q61826 22-365, limits assumed)
T2 construct: also called mouse MAdCAM-1; muMAdCAM
T2 sequence (looked up): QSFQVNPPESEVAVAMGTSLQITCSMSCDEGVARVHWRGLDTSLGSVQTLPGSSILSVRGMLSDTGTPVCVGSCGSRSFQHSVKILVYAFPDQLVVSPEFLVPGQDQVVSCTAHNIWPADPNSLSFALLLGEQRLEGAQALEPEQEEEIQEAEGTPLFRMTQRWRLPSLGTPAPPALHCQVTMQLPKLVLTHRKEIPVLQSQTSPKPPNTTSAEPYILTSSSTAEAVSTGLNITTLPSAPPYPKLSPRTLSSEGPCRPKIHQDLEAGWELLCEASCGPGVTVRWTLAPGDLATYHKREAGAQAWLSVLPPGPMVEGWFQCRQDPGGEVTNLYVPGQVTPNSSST

B1: PMAB19 (bispecific antibody, human IgG1, kappa)
heavy: EVQLLESGGGLVQPGGSLRLSCAASGFTFSNSDMSWVRQAPGKGLEWVSGITISGGSTYYADSVKGRFTISRDNSKNTLYLQMNSLRAEDTAVYYCARGRGGSGWLDYWGQGTLVTVSSASTKGPSVFPLAPSSKSTSGGTAALGCLVKDYFPEPVTVSWNSGALTSGVHTFPAVLQSSGLYSLSSVVTVPSSSLGTQTYICNVNHKPSNTKVDKKVEPKSCDKTHTCPPCPAPEAAGAPSVFLFPPKPKDTLMISRTPEVTCVVVDVSHEDPEVKFNWYVDGVEVHNAKTKPREEQYNSTYRVVSVLTVLHQDWLNGKEYKCKVSNKALPAPIEKTISKAKGQPREPQVYTLPPSREEMTKNQVSLTCLVKGFYPSDIAVEWESNGQPENNYKTTPPVLDSDGSFFLYSKLTVDKSRWQQGNVFSCSVMHEALHNHYTQKSLSLSPGGGGGSGGGGSGGGGSEVQLLESGGGLVQPGGSLRLSCAASGFTFSSFWMHWVRQAPGKGLEWISYISGDSGYTNYADSVKGRFTISRDNSKNTLYLQMNSLRAEDTAVYYCARDRPYYYYMDVWGKGTTVTVSSGGGGSGGGGSGGGGSGGGGSDIQMTQSPSSLSASVGDRVTITCRASQSVSRSLAWYQQKPGKAPKLLIYAASSLQSGVPSRFSGSGSGTDFTLTISSLQPEDFATYYCQQYKSYPVTFGQGTKVEIK
light: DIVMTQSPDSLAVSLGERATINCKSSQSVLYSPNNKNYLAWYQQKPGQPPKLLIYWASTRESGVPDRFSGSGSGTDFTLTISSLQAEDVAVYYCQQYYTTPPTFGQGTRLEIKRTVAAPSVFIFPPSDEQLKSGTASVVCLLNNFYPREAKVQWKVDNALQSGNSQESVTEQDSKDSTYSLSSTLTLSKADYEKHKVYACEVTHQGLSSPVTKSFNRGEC
B2: PMAB20 (bispecific antibody, human IgG1, kappa)
heavy: EVQLLESGGGLVQPGGSLRLSCAASGFTFSNSDMSWVRQAPGKGLEWVSGITISGGSTYYADSVKGRFTISRDNSKNTLYLQMNSLRAEDTAVYYCARGRGGSGWLDYWGQGTLVTVSSASTKGPSVFPLAPSSKSTSGGTAALGCLVKDYFPEPVTVSWNSGALTSGVHTFPAVLQSSGLYSLSSVVTVPSSSLGTQTYICNVNHKPSNTKVDKKVEPKSCDKTHTCPPCPAPEAAGAPSVFLFPPKPKDTLMISRTPEVTCVVVDVSHEDPEVKFNWYVDGVEVHNAKTKPREEQYNSTYRVVSVLTVLHQDWLNGKEYKCKVSNKALPAPIEKTISKAKGQPREPQVYTLPPSREEMTKNQVSLTCLVKGFYPSDIAVEWESNGQPENNYKTTPPVLDSDGSFFLYSKLTVDKSRWQQGNVFSCSVMHEALHNHYTQKSLSLSPGGGGGSGGGGSGGGGSEVQLLESGGGLVQPGGSLRLSCAASGFTFSDYWMHWVRQAPGKGLEWISYISGDSGYTNYADSVKGRFTISRDNSKNTLYLQMNSLRAEDTAVYYCARDRPYYYYMDVWGKGTTVTVSSGGGGSGGGGSGGGGSGGGGSDIQMTQSPSSLSASVGDRVTITCRASQSVSRSLAWYQQKPGKAPKLLIYAASSLQSGVPSRFSGSGSGTDFTLTISSLQPEDFATYYCQQYKSYPVTFGQGTKVEIK
light: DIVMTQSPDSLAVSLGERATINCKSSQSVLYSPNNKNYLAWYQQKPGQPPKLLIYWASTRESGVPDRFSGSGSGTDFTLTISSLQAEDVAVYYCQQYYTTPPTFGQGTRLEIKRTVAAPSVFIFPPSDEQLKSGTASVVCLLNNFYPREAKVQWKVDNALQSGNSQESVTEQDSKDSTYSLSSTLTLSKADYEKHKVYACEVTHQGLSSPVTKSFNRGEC
B3: PMAB41 (bispecific antibody, human IgG1, kappa)
heavy: EVQLLESGGGLVQPGGSLRLSCAASGFTFSNSDMSWVRQAPGKGLEWVSGITISGGSTYYADSVKGRFTISRDNSKNTLYLQMNSLRAEDTAVYYCARGRGGSGWLDYWGQGTLVTVSSASTKGPSVFPLAPSSKSTSGGTAALGCLVKDYFPEPVTVSWNSGALTSGVHTFPAVLQSSGLYSLSSVVTVPSSSLGTQTYICNVNHKPSNTKVDKKVEPKSCDKTHTCPPCPAPEAAGAPSVFLFPPKPKDTLMISRTPEVTCVVVDVSHEDPEVKFNWYVDGVEVHNAKTKPREEQYNSTYRVVSVLTVLHQDWLNGKEYKCKVSNKALPAPIEKTISKAKGQPREPQVYTLPPSREEMTKNQVSLTCLVKGFYPSDIAVEWESNGQPENNYKTTPPVLDSDGSFFLYSKLTVDKSRWQQGNVFSCSVMHEALHNHYTQKSLSLSPGGGGGSGGGGSGGGGSEVQLLESGGGLVQPGGSLRLSCAASGFTFSDFWMHWVRQAPGKGLEWISYISGDSGYTNYADSVKGRFTISRDNSKNTLYLQMNSLRAEDTAVYYCARDRPYYYYMDVWGKGTTVTVSSGGGGSGGGGSGGGGSGGGGSDIQMTQSPSSLSASVGDRVTITCRASQSVSRSLAWYQQKPGKAPKLLIYAASSLQSGVPSRFSGSGSGTDFTLTISSLQPEDFATYYCQQYYSYPVTFGQGTKVEIK
light: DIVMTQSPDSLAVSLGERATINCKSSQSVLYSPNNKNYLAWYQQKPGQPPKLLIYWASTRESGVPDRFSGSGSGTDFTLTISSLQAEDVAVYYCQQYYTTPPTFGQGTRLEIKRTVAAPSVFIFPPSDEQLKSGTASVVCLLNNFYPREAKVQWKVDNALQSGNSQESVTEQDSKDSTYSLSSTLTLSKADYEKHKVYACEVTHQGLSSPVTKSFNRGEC
B4: MIAB141 (antibody, V domains shown)
VH: EVQLLESGGGLVQPGGSLRLSCAASGFTFSDFWMHWVRQAPGKGLEWISYISGDSGYTNYADSVKGRFTISRDNSKNTLYLQMNSLRAEDTAVYYCARDRPYYYYMDVWGKGTTVTVSS
VL: DIQMTQSPSSLSASVGDRVTITCRASQSISSYLNWYQQKPGKAPKLLIYAASSLQSGVPSRFSGSGSGTDFTLTISSLQPEDFATYYCQQYKSYPVTFGQGTKVEIK
notes: tested with human Fc
B5: MIAB183 (antibody, V domains shown)
VH: EVQLLESGGGLVQPGGSLRLSCAASGFTFSSYWMHWVRQAPGKGLEWVSAISGSGGSTYYADSVKGRFTISRDNSKNTLYLQMNSLRAEDTAVYYCARDRPYYYYMDVWGKGTTVTVSS
VL: DIQMTQSPSSLSASVGDRVTITCRASQSVSSSLAWYQQKPGKAPKLLIYAASSLQSGVPSRFSGSGSGTDFTLTISSLQPEDFATYYCQQYKSYPVTFGQGTKVEIK
notes: tested with human Fc; also called MIAB183-001

Target: T1, human MAdCAM
Test: BLI (Octet), binder on AHC tips
How it was run: (§1)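 Kinetic rates and the dissociation constant come from a global one-to-one fit, performed in the Octet data analysis software, of binding measured on an Octet96 RED with anti-human IgG Fc biosensors. Test article at 10 μg/mL in assay buffer was captured on the tips for 240 s. MAdCAM-1, serially diluted over seven points from 200 nM down to 3.13 nM, then associated for 120 s before 120 s of dissociation in assay buffer.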

Row | Kd | koff | kon | Binder
1 | 31.2 nM | 0.0168 s⁻¹ | 540000 M⁻¹ s⁻¹ | B1
2 | 90.5 nM | 0.0372 s⁻¹ | 411000 M⁻¹ s⁻¹ | B2

Target: T2, mouse MAdCAM
Test: BLI (Octet), binder on AHC tips
How it was run: as §1

Row | Kd | koff | kon | response | Binder
3 | 112 nM | 0.0177 s⁻¹ | 158000 M⁻¹ s⁻¹ | 0.149 | B1
4 | 118 nM | 0.0193 s⁻¹ | 163000 M⁻¹ s⁻¹ | 0.153 | B2
5 | 119 nM | 0.0246 s⁻¹ | 208000 M⁻¹ s⁻¹ | 0.189 | B3

Target: T1, human MAdCAM
Test: BLI (Octet), binder on anti-human Fc tips

Row | binding result | Kd | fold reduction of affinity against PRNT1 | Binder
6 | no binding (tested: 150 nM) |  |  | B4
7 |  | 362 nM | 20 fold | B5
